To fix the notation:
T1: canine IL-31 (dog)
T1 chain: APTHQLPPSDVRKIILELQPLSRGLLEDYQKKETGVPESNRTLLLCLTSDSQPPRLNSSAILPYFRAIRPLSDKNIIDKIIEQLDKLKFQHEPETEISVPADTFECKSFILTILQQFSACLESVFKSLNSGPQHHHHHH

B1: 47C1-1 rabbit-derived (antibody, V domains shown)
VH: QSVEESGGRLVTPGTPLTLTCTVSGFSLSTYAMNWVRQAPGKGLEWIGIIYSNGDGYYASWAKGRYTISKTSSTTVDLKVTSPTTEDTATYFCARGIYSQTTGYFNLWGQGTLVTVSS
VL: DIVMTQTPASVEAAVGGIVIIKCQASESIGNTLAWYQQKPGQPPKLLIYGASTLASGVSSRFKGSGSGTEVTLTISDLECADAATYYCQSYWSSTTTFRDTFGGGTEVVVK
B2: 5H4-2 rabbit-derived (antibody, V domains shown)
VH: QSLEESGGDLVKPGASLTLTCTASGFTLSSDYYMCWVRQAPGKGLELIACITTSTVGTWYASWAKGRFTISKTSSTTVTLQMTSLTAADTATYFCGREDGTYADYFNLWGPGTLVTVSS
VL: AYDMTQTPASVEVAVGGTVTIKCQASQSISSWLAWYQQKPGQRPKLLIYRASTLASGVSSRFKGSGSGTQFTLTISGVECADAATYYCQQGYRSSNLDNAFGGGTEVVVK
B3: 35C9-1 rabbit-derived (antibody, V domains shown)
VH: QSLEESGGRLVTPGTPLTLTCTASGFSLSSYWMSWVRQAPGKGLEWIGDIYATGSTYYANWATGRFTGSKTSTTVDLTITSPTIEDTATYFCARHSSRSGIDFDLWGQGTLVTVSS
VL: AYDMTQTPASVEAAVGGTVTIKCQASQSIGNYLAWYQQKPGQPPKQLIYRASTLASGVPSRFKGSGSGTEFTLTISDLECADGATYYCQQGYDSNNVDNFFGGGTEVVVR
B4: 19D1-1 rabbit-derived (antibody, V domains shown)
VH: B3 VH with T53S, T56E, N60S, A62V, T63N, T78K
VL: B3 VL with G30S, I75M, G83A, F100L, R110K
B5: 38E2-1 rabbit-derived (antibody, V domains shown)
VH: QSLEESGGRLVTPGTPLTLTCTASAFSLSGYYMGWVRQAPGKGLEYIGIIGGSSNTFYASWAKGRFTISKTPTTVDLKITSPTTEDTATYFCARHGDTDYISGTYFDLWGQGTLVTVSS
VL: AYHMTQTPASVEVPVGGTVTIKCQASQSISIYLAWYQQKPGQPPKLLIYRASTLASGVPSRFIGSGSGTEFSLTISDLECADAATYYCQQGYEDSNVESLFGGGTEVVVK
B6: 19C7-1 rabbit-derived (antibody, V domains shown)
VH: QSVEESGGRLVTPGTPLTLTCTVSGFSLNSYAMGWVRQAPGKGLEYIGIINSSGSTWYATWVKGRFTISKTSTTVDLKMTSVTTEDTATYFCARNRDPFYITDMDLWGQGTLVTVSS
VL: QVLTQTPSSVSAAVGGTVTINCQASQNIYSYLSWYQQKPGQPPKLLIYRASTLASGVPSRFKGSGSGTEFTLTISGVECADAATYYCQQGDSYSDVDNIFGGGTEVVVK
B7: 30G5-1 rabbit-derived (antibody, V domains shown)
VH: QSLEESGGRLVTPGGSLTLTCTVSGFSLSSYAMIWVRQAPGEGLEWIGTIDPSDNTDYASWAKGRFTISKTSSTTVDLKLTSLTTEDTATYFCASHSYDDYGRDVWNLWGQGTLVTVSS
VL: IVMTQTPSSKSVPVGDTVTINCQASQSVDNNNDLSWYQQKPGQPPKLLIYYTSSLPSGVPSRFKGSGSGTQFTLTISDLECDDAATYYCVGYKSSTTDATAFGGGTEVMVK
B8: 30A11-1 rabbit-derived (antibody, V domains shown)
VH: QEQLKESGGGLVTPGGTLTLTCTASGFTISGYYMNWVRQAPGKGLEWIGFIYSPSTTYYANWAKGRFTISKTSTTVDLKITSPTTEDTATYFCARGHTTEIRLDLWGQGTLVTVSS
VL: AVLTQTPSPVSAAVGGTVSISCQSSESVYKNNRLSWFQQKPGQPPKLLIFDASTLASGVSSRFKGSGSGTQFTLTISGVQCDDAATYYCLGEFRDSSDNSFGGGTEVVVK
B9: 44B4-1 rabbit-derived (antibody, V domains shown)
VH: QSLEESGGRLVTPGTPLTLTCTASGFSLSNSYMGWVRQAPGKGLEYIGFIDTGGTTYYASWAKGRFTISRTSTTVDLKMTSPTTEDTATYFCAKGPDDYFFNLWGQGTLVTVSS
VL: DIVMTQTPASVEAAVGGTITINCQASESISSWLAWYQQKPGQPPKLLIYKASTLESGVPSRFKGSGSGTEFTLTISGVQCADAATYYCQVYYFSYNSYNFFGGGTEVVVK
B10: 18E8-1 rabbit-derived (antibody, V domains shown)
VH: B5 VH
VL: B5 VL with R50K
B11: Chimeric Antibody 47C1-1 (antibody, V domains shown)
VH: B1 VH
VL: DIVMTQTPASVEAAVGGIVIIKCQASESIGNTLAWYQQKPGQPPKLLIYGASTLASGVSSRFKGSGSGTEVTLTISDLECADAATYYCQSYWSSTTTFRDTFGGGTEVVVKR
B12: Chimeric Antibody 35C9-1 (antibody, V domains shown)
VH: B3 VH
VL: AYDMTQTPASVEAAVGGTVTIKCQASQSIGNYLAWYQQKPGQPPKQLIYRASTLASGVPSRFKGSGSGTEFTLTISDLECADGATYYCQQGYDSNNVDNFFGGGTEVVVRR
B13: Chimeric Antibody 38E2-1 (antibody, V domains shown)
VH: B5 VH
VL: AYHMTQTPASVEVPVGGTVTIKCQASQSISIYLAWYQQKPGQPPKLLIYRASTLASGVPSRFIGSGSGTEFSLTISDLECADAATYYCQQGYEDSNVESLFGGGTEVVVKR
B14: Caninized 47C1-1-H3L3 (antibody, V domains shown)
VH: EVQLVESGGDLVKPGGSLRLSCVASGFSLSTYAMNWVRQAPGKGLEWISIIYSNGDGYYASWAKGRFTISRDNSKNTLYLQMNSLRAEDTAVYYCARGIYSQTTGYFNLWGQGTLVTVSS
VL: MDTRAPTQLLGLLLLWLPGARCEIVMTQTPASLSLSQEGKVTITCQASESIGNTLAWYQQKPGQPPKLLIYGASTLASGVPSRFSGSGSGTDFTFTINSLQPEDVATYYCQSYWSSTTTFRDTFGQGTKVEIKR
B15: Caninized 47C1-1-H2L2 (antibody, V domains shown)
VH: B14 VH with S74A
VL: B14 VL
B16: Caninized 38E2-1-H3L3 (antibody, V domains shown)
VH: EVQLVESGGDLVKPGGSLRLSCVASAFSLSGYYMGWVRQAPGKGLEWISIIGGSSNTFYASWAKGRFTISKDNSKNTLYLQMNSLRAEDTAVYFCARHGDTDYISGTYFDLWGQGTLVTVSS
VL: EIVMTQSPASLSLSQGEKVTITCQASQSISIYLAWYQQKPGQPPKLLIYRASTLASGVPSRFSGSGSGTDFSFTITSLQPEDVATYYCQQGYEDSNVESLFGQGTKVEIKR
B17: Caninized 38E2-1-H3L2 (antibody, V domains shown)
VH: B16 VH
VL: B16 VL with T76S
B18: Caninized 35C9-1-H1L2 (antibody, V domains shown)
VH: EVQLVESGGDLVKPGGSLRLSCVASGFTFSSYWMSWVRQAPGKGLQWLSDIYATGSTYYANWATGRFTGSRDNAKNTLYLQMNSLTIEDTATYFCARHSSRSGIDFDLWGQGTLVTVSS
VL: EIVMTQSPASLSLSQEEKVTITCQASQSIGNYLAWYQQKPGQAPKQLIYRASTLASGVPSRFSGSGSGTDFTLTISDLECADVAVYYCQQGYDSNNVDNFFGQGTKVEIKR
B19: Caninized 35C9-1-H1L1 (antibody, V domains shown)
VH: B18 VH
VL: B18 VL with S63K, D70E

Residue numbers refer to the chain shown, from its start.

The target of the first assay is T1, canine IL-31. Put plainly: BLI. (In general: In BLI a coated tip is dipped into the sample, and binding shifts an interference pattern.)
One may read the Kd as the equilibrium constant for the complex coming apart. Low readings indicate tighter binding, high ones weaker binding. For the molecule B1, binding was put at a Kd of 3.75 nM.
The same measure, in the same setting: the figure for B2 is 113 nM; for B3 it is 12.7 nM; for B4 it is 43.3 nM.
B5 yielded a dissociation constant Kd of 2.55 nM.

The target of a further assay is T1, canine IL-31. Nature of the assay: ELISA. In general terms: In an ELISA, binding on a coated surface is turned into a signal by an enzyme label.
What is called EC50 is the concentration needed to bring the measured effect to its halfway point. Higher therefore signals lower potency in that assay. In the case of B1, the EC50 was found to be 0.00179 µg/mL.
Still for that read-out and setting: the figure for B6 is 0.00321 µg/mL; for B2 it is 0.000841 µg/mL; for B7 it is 0.00208 µg/mL.
Same read-out and setting: the figure for B3 is 0.0023 µg/mL; for B4 it is 0.000196 µg/mL.
As for B8, the 50% effective concentration (EC50) was found to be 0.00282 µg/mL.
Still for that read-out and setting: the figure for B9 is 0.000232 µg/mL.
For B5, the EC50 was found to be 0.000915 µg/mL.
As to B10, it took 0.00195 µg/mL to reach a half-maximal effect (EC50).

The target of another assay is T1, canine IL-31. Nature of the assay: BLI. This is another data set of the same source.
Regarding B11, the Kd was 8.32 nM.
Same read-out and setting: the figure for B1 is 3.75 nM.
On the same count and under the same terms, in the case of B12 it was 11.9 nM.
The molecule B3 registered a dissociation constant (Kd) of 12.7 nM.
Same read-out and setting: in the case of B5 it was 0.815 nM; in that of B13, 2.49 nM.

A further assay concerns the target T1, canine IL-31. Put plainly: ELISA. The source holds these as a separate data set.
Turning to B14, the EC50 was found to be 0.105 µg/mL.
In turn, B15 yielded an EC50 of 0.113 µg/mL.
On to B11, for which the 50% effective concentration (EC50) was found to be 0.102 µg/mL.
As to B16, it took 0.0934 µg/mL to reach a half-maximal effect (EC50).
On the same count and under the same terms, the figure for B17 is 0.0978 µg/mL; for B12 it is 0.103 µg/mL; for B18 it is 0.158 µg/mL.
Still for that read-out and setting: in the case of B19 it was 0.19 µg/mL.
The same measure, in the same setting: in the case of B13 it was 0.0928 µg/mL.

A further assay concerns the target T1, canine IL-31. Nature of the assay: BLI. The source holds these as a separate data set.
B14 showed a Kd of 15.5 nM.
Still for that read-out and setting: in the case of B15 it was 15.1 nM; in that of B11, 8.32 nM.
In turn, B1 showed a dissociation constant Kd of 3.75 nM.
B16 displayed a dissociation constant (Kd) of 5.35 nM.
With B17, the Kd worked out at 8.04 nM.
Same read-out and setting: the figure for B12 is 11.9 nM; for B3 it is 12.7 nM; for B18 it is 389 nM.
In turn, B19 yielded a dissociation constant Kd of 495 nM.
For B5, the Kd turned out to be 0.815 nM.
On the same count and under the same terms, in the case of B13 it was 2.49 nM.

The target in another assay is T1, canine IL-31. Nature of the assay: ELISA. This is another data set of the same source.
For the molecule B11, the EC50 was found to be 0.0985 µg/mL.
The same measure, in the same setting: the figure for B12 is 0.105 µg/mL; for B13 it is 0.094 µg/mL.

Source of the values: patent publication US20260327301 (published 2026).
